Results taken from the supplement of paper PMC9170038.

System: MS2 coat protein
Assay: apparent KD of MS2 coat protein; designed switch direction (-1 OFF switch, 1 ON switch): -1; higher = weaker reporter binding
How it was run: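 The apparent KD reported per design is the median over clusters of curve fits to normalised cluster fluorescence. The RNA switches were transcribed on Illumina chips by stalled E. coli RNA polymerase. SNAP-549-labelled MS2 coat protein was titrated from 0.7 or 1.5 nM, doubling up to 3 µM, in Tris-HCl pH 7.5 buffer containing KCl, MgCl2, BSA, DTT, tRNA and Tween-20, with no input, 200 uM small-molecule ligand, or an oligonucleotide input.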

[1] = Eterna round: R95, input ligand: FMN 200 uM
[2] = Eterna round: R95, input ligand: microRNA oligo, concentration not stated
[3] = Eterna round: R95, input ligand: none
[4] = input ligand: microRNA oligo, concentration not stated

## GCUGGUCGAGGAUAUACAUAACGUGCUUCGGCACGAGAUCUACAUGAGGAUCACCCAUGUAGAAGGCGACCAGC [E2/10-A1] (Eterna round: R97, puzzle: Exclusion 2)
Input ligand: FMN 200 uM
  apparent KD of MS2 coat protein: 57.8 nM
Input ligand: none
  apparent KD of MS2 coat protein: 18 nM

## AGAAAUGCCCAUGGCCACAAGCUUUCUGCUUGUCUUACUACAUGAGGAUCACCCAUGUAACAUGGGCUCCUGAUAAU [Enzainge] (puzzle: Sensor v3, turn-off variant 2)
[1]
  apparent KD of MS2 coat protein: 13.2 nM
[2]
  apparent KD of MS2 coat protein: 10.4 nM
[3]
  apparent KD of MS2 coat protein: 11.4 nM

## UUCCUCACUUCUUUGACUCACAUGAGGAUCACCCAUGUAAUAUAGGAUAUGCAUUUUAUUUCUUUGCAGAAGGAUAUUAGUUUU [JR_ExcNG3_Sub088] (Eterna round: R96, puzzle: Exclusion NG 3)
[4]
  apparent KD of MS2 coat protein: 34.7 nM

## ACAUGUUGUCCAUGAUAUUACAUGAGGAUCACCCAUGUUAUUGCGAUUUUGAUGUGUAAGUUUGUUGCUCGUCUUAU [JR_STOV1_Sub062] (Eterna round: R97, puzzle: Sensor, turn-off variant 1)
Input ligand: FMN 200 uM
  apparent KD of MS2 coat protein: 29.6 nM
Input ligand: none
  apparent KD of MS2 coat protein: 32.6 nM

## ACAACCGGAGGAUAUACGUAUUCAUCACUCAACGCGGAACGACAUGAGGAUCACCCAUGUAGAAGGCCGAGAGU [EX2 B.24] (Eterna round: R97, puzzle: Exclusion 2)
Input ligand: FMN 200 uM
  apparent KD of MS2 coat protein: 13.5 nM
Input ligand: none
  apparent KD of MS2 coat protein: 16 nM

## GGUACUAACACGAAAGUGUUAGUACUAUAAGCUUGUGUUACAUGAGGAUCACCCAUGUCCUCAUAAGCUCGUCUUGU [JL-sv3-2.19 mat747 mod] (puzzle: Sensor v3, turn-off variant 2)
[1]
  apparent KD of MS2 coat protein: 45.4 nM
[2]
  apparent KD of MS2 coat protein: 44.2 nM
[3]
  apparent KD of MS2 coat protein: 44.9 nM

## UCUCACUCAGGAUAUCUUCCGCAUGACAUGAGGAUCACCCAUGUGUGCAUGCCCUUUGGUAGAGAAGGGAGUGAGA [eternacac ex5r4 #5] (Eterna round: R97, puzzle: Exclusion 5)
Input ligand: FMN 200 uM
  apparent KD of MS2 coat protein: 22.7 nM
Input ligand: none
  apparent KD of MS2 coat protein: 24.4 nM

## CGAGAGCGAGGAUAUACACAACACCUCACUGUCAAGAAAGGACAUGAGGAUCACCCAUGUAGAAGGUGCAAAGC [Xecerevear] (puzzle: Exclusion 2)
[1]
  apparent KD of MS2 coat protein: 303 nM
[2]
  apparent KD of MS2 coat protein: 412 nM
[3]
  apparent KD of MS2 coat protein: 326 nM

## CAUACUCAAGUCAGGAUAUACAGUCGGAUACGGGUGUAGAAGGGACAUGAGGAUCACCCAUGUAGAGAGUAAAG [EX-4 Malc #23] (puzzle: Brourd's mod of Exclusion 4)
[1]
  apparent KD of MS2 coat protein: 87 nM
[2]
  apparent KD of MS2 coat protein: 31.1 nM
[3]
  apparent KD of MS2 coat protein: 53.8 nM

## AGAUCACAUGAGGAUCACCCAUGUGAGGAUAUGAUACUAUGUACUUCGGUACAUAGUAUCAGAAGGCAUGUGGA [Ex1-3: 75] (puzzle: Exclusion 1)
[2]
  apparent KD of MS2 coat protein: 53.7 nM

## GUUGUAUGAGGAUAUACAUGAGGAUCACCCAUGUGUGUUGUGAACGACGUACGUUUAUGUAGAAGGCGUGCGGC [-24.9, -21.8 kcal, 24% A] (Eterna round: R97, puzzle: Exclusion 3)
Input ligand: FMN 200 uM
  apparent KD of MS2 coat protein: 18.2 nM
Input ligand: none
  apparent KD of MS2 coat protein: 17.9 nM

## CCAAGCUUUUUCAUUAACAACAUGAGGAUCACCCAUGUUUAAGCUAUUACUUUUGGGCUCUUUAGUGCUAGUCUUAU [JR_STOV1_Sub039] (Eterna round: R97, puzzle: Sensor, turn-off variant 1)
Input ligand: FMN 200 uM
  apparent KD of MS2 coat protein: 18.6 nM
Input ligand: none
  apparent KD of MS2 coat protein: 19.4 nM

## UGCCGUUUAGGAUAUACAUGAGGAUCACCCAUGUGACACACAUAUUUUACAAAACCAUGUAGAAGGAAACGGCA [E3-1.0] (Eterna round: R96, puzzle: Exclusion 3)
Input ligand: FMN 200 uM
  apparent KD of MS2 coat protein: 542 nM
[4]
  apparent KD of MS2 coat protein: 95.4 nM
Input ligand: none
  apparent KD of MS2 coat protein: 114 nM

## GCACGGAGUGUAGGAUAUCUGUGCGAUUAGCUCAGAGAAGGACACAUGAGGAUCACCCAUGUGUAACAACACAAUAAUCCGUGC [Eli exng1 - 072] (Eterna round: R96, puzzle: Exclusion NG 1)
Input ligand: FMN 200 uM
  apparent KD of MS2 coat protein: 12.3 nM
[4]
  apparent KD of MS2 coat protein: 11.2 nM
Input ligand: none
  apparent KD of MS2 coat protein: 14.2 nM
